{"source": "patent US20150231218A1", "about": "(MAYO FOUNDATION FOR MEDICAL EDUCATION AND RESEARCH, published 2015)", "molecular_target": "T1, HLA-A2 (class I MHC molecule) on TAP deficient T2 cells", "T1 construct": "whole, on cells; Target of the T2 HLA-A2 stabilization assay; The assay text says only HLA-A2; also called HLA-A*0201", "test": "T2 HLA-A2 stabilization assay", "text": "Many of the polypeptides that were processed in the assay were synthesized and tested for binding to the class I MHC molecule, HLA-A2, using the standard T2 HLA-A2 stabilization assay.", "data": [{"binder": "SLAFLPESFD (Synthetic peptide)", "note": "[HER-2/neu polypeptide p373-382 (SLAFLPESFD)]", "values": [{"measurement": "binding result", "result": "binds"}]}]}
